Test results published in PMC4140661.

Molecular target: Pea2p-L409-ProA (pea2-M409L; S288C-encoded Pea2p variant in the Σ1278b background) (S. cerevisiae (S288C allele recreated in strain Σ1278b)) (UniProt P40091)
Assay: co-IP; IgG pull-down with Pea2p-ProA as bait from lysates of Σ1278b cells; HA-Spa2p from a copper-inducible plasmid; lysis buffer 50 mM Tris-HCl pH 7.5, 150 mM NaCl, 2 mM EDTA, 0.5% Triton X-100; 2 hr at 4°C; Western blot (anti-HA, anti-Protein A); levels normalized against total cell lysate

Sequence of HA-Spa2p (P23201 whole entry): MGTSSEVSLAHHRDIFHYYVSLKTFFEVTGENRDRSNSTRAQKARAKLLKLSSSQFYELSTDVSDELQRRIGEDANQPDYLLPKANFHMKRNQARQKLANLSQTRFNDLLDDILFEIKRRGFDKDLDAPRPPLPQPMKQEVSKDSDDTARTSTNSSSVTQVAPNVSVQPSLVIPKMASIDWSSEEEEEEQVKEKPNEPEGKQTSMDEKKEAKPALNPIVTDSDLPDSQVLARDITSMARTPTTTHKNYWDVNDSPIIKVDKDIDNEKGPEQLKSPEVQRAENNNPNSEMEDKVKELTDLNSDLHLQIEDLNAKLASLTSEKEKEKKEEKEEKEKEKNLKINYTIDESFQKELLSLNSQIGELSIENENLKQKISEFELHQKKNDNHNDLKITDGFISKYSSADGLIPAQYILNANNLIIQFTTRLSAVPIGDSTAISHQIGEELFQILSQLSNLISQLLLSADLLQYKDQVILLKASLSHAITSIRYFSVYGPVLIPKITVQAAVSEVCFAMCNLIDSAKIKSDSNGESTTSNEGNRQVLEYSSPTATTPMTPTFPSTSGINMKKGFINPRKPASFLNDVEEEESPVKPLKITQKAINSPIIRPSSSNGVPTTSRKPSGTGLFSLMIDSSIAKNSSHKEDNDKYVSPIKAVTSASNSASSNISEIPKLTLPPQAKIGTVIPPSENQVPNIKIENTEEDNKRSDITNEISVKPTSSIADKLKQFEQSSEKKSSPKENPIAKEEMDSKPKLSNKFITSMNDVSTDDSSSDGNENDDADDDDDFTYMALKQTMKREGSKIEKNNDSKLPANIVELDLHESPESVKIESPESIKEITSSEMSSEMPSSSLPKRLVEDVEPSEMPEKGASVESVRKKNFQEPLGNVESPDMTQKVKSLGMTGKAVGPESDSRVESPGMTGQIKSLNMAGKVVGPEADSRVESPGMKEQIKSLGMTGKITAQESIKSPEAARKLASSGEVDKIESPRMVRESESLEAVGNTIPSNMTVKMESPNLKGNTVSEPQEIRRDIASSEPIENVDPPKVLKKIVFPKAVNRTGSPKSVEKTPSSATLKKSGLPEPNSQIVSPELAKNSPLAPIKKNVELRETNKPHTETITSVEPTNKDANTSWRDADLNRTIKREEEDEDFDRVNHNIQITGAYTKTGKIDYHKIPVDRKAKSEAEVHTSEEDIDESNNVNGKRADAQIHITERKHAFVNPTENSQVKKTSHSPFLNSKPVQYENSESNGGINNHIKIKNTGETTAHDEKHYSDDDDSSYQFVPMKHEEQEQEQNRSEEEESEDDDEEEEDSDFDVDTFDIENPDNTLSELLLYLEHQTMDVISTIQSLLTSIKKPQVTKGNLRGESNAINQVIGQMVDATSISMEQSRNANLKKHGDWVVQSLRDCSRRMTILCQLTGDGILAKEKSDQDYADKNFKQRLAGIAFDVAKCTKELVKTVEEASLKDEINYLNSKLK
Sequence of UniProt P40091 (P40091 whole entry, stated change not applied): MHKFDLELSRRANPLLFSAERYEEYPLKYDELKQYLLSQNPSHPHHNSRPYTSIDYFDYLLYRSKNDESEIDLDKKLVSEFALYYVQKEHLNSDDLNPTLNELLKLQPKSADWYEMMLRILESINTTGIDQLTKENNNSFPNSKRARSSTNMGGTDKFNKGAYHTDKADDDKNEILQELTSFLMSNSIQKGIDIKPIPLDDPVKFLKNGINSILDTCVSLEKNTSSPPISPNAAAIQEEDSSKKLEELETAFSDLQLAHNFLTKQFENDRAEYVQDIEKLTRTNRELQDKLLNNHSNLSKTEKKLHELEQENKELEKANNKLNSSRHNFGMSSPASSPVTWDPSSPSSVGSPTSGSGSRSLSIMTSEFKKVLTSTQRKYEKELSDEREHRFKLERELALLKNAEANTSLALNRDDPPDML

amount of Spa2p recovered relative to Pea2p-M409: 60%
Substance: HA-Spa2p (from UniProt P23201 1-1466) (natural protein)
